From US20150307625A1 (Bayer, published 2015)
Positions count from the first letter of the chain named.

T1: dog activated Protein C (dog, UniProt Q28278 43-456)
T1 construct: mature; also called dog aPC; dAPC
T1 sequence (looked up): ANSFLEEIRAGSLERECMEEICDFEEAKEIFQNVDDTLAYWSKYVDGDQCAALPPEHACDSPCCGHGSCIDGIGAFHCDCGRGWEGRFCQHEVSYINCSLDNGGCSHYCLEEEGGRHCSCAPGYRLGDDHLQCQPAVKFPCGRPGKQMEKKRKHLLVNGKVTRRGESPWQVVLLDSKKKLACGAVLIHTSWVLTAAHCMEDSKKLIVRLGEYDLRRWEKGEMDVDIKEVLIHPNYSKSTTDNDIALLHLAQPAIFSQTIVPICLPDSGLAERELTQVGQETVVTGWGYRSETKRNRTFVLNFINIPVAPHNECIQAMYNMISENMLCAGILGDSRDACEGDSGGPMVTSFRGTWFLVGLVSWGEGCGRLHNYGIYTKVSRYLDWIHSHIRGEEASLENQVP

T2: dog Protein C (zymogen) (dog, UniProt Q28278 43-456)
T2 construct: mature; also called dog PC
T2 sequence (looked up): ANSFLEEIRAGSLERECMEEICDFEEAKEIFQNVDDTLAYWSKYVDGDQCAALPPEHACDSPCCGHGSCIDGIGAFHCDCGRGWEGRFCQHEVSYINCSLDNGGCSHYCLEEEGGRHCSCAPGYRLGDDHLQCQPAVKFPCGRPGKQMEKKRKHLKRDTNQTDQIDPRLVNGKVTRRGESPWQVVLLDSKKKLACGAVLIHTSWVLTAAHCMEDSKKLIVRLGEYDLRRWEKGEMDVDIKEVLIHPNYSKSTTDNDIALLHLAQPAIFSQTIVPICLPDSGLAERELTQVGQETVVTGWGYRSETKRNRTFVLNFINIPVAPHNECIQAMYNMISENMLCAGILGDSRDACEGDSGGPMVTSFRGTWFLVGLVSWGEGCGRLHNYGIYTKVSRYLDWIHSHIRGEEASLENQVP

T3: mouse Protein C (zymogen) (mouse, UniProt P33587 42-460)
T3 construct: mature; also called mouse PC
T3 sequence (looked up): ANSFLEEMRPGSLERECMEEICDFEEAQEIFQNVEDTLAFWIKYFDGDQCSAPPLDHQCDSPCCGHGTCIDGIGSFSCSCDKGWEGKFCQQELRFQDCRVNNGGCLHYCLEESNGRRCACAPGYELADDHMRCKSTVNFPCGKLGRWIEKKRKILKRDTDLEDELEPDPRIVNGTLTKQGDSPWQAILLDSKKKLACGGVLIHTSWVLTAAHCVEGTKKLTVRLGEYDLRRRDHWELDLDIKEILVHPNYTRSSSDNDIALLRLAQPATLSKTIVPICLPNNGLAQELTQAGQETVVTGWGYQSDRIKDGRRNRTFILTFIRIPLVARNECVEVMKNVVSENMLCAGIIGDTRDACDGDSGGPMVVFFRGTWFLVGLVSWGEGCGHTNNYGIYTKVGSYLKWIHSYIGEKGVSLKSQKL

B1: C7A23 hIgG1 (antibody, V domains shown)
VH: EVQLLESGGGLVQPGGSLRLSCAASGFTFGNHWMTWVRQAPGKGLEWVSGVSWNGSRTHYADSVKGRFTISRDNSKNTLYLQMNSLRAEDTAVYYCALTGRSGWMRFPNWFDPWGQGTLVTVTS
VL: QSVLTQPPSASGTPGQRVTISCSGSSSNIGNNYVSWYQQLPGTAPKLLIYRNNQRPSGVPDRFSGSKSGTSASLAISGLRSEDEADYYCQSYDSDLSGPYVLFGGGTKLTVLG
notes: also called C7A23-IgG
B2: C25K23 IgG1 (antibody, V domains shown)
VH: B1 VH with G30S, N31S, H32Y, T35S, T123S
VL: QSVLTQPPSASGTPGQRVTISCTGSSSNIGAAYDVHWYQQLPGTAPKLLIYGNNKRPSGVPDRFSGSKSGTSASLAISGLRSEDEADYYCQSYDSSLSGSVFGGGTKLTVLG
notes: the claims call them variable regions; also called C25K23 hIgG; C25K23 hIgG1
B3: C25K23 Fab (Fab, V domains shown)
VH: B1 VH with G30S, N31S, H32Y, T35S
VL: B2 VL
notes: Human Fab (lambda) from a phage library, expressed in E. coli; also called Fab C25K23
B4: C7I7 hIgG1 (antibody, V domains shown)
VH: B1 VH
VL: QSVLTQPPSASGTPGQRVTISCTGSSSNIGAGYDVHWYQQLPGTAPKLLIYGNSNRPSGVPDRFSGSKSGTSASLAISGLRSEDEAAYYCSSYVGSDLVVFGGGTKLTVLG
notes: also called C717-IgG
B5: C7I7 Fab (Fab, V domains shown)
VH: B1 VH
VL: B4 VL
notes: Human Fab (lambda) from a phage library, expressed in E. coli; also called C717
B6: Variant 2312 (modified C25K23 IgG) (antibody, V domains shown)
VH: B1 VH with G30S, N31S, H32Y, T35S, S56A, T123S
VL: B2 VL with A10V, T13A, S78T, R81Q, S82A
B7: C22J13 hIgG1 (antibody, V domains shown)
VH: EVQLLESGGGLVQPGGSLRLSCAASGFTFSSNYMSWVRQAPGKGLEWVAVISYDGSNKYYADSVKGRFTISRDNSKNTLYLQMNSLRAEDTAMYYCALTGRSGWMRFPNWFDPWGQGTLVTVTS
VL: QSVLTQPPSASGTPGQRVTISCSGSDSNIGSNAVNWYQQLPGTAPKLLIYDNNKRPSGVPDRFSGSKSGTSASLAISGLRSEDEADYYCSSYTSSNTVVFGGGTKLTVLG

What was measured:
[1] = target: rabbit activated Protein C (rabbit) (UniProt Q28661); experiment: direct ELISA, aPC coated, hIgG1
dog activated Protein C [2] = target: T1, dog activated Protein C; experiment: direct ELISA, aPC coated, hIgG1
[3] = target: rabbit activated Protein C (rabbit) (UniProt Q28661); experiment: cell-based or functional assay
dog activated Protein C [4] = target: T1, dog activated Protein C; experiment: cell-based or functional assay
[5] = target: rabbit activated Protein C (rabbit) (UniProt Q28661); experiment: ELISA, hIgG1
dog Protein C (zymogen) [6] = target: T2, dog Protein C (zymogen); experiment: direct ELISA, antigen coated
dog activated Protein C [7] = target: T1, dog activated Protein C; experiment: ELISA, hIgG1
[8] = target: T4, human activated Protein C (human, UniProt P04070 43-461); experiment: direct ELISA, aPC coated, hIgG1
T4 construct: also called human aPC; hAPC

[9] = target: T4, human activated Protein C; experiment: cell-based or functional assay
[10] = target: T4, human activated Protein C; experiment: ELISA, hIgG1
[11] = target: T5, human Protein C (zymogen) (human, UniProt P04070 43-461); experiment: direct ELISA, antigen coated at 1 ug/ml, IgG at 20 nM, anti-human IgG-HRP, AmplexRed (RFU)
T5 construct: also called human PC; hPC

[12] = target: T4, human activated Protein C; experiment: Biacore, Fab
dog activated Protein C [13] = target: T1, dog activated Protein C; experiment: Biacore, Fab
[14] = target: T5, human Protein C (zymogen); experiment: direct ELISA, antigen coated at 100 ng/well, Fab at 20 nM (1 ug/ml), anti-human Fab-HRP, AmplexRed (RFU)
Protocol: FIG. 3 depicts a graph characterizing anti-APC Fabs by direct ELISA. An ELISA plate was coated with human PC (hPC), human aPC (hAPC), dog aPC (dAPC), mouse aPC (mAPC) at 100 ng per well. Purified Fabs designate on the X-axis were added to the plate at 20 nM (1 ug/ml). Bound Fab was detected by the secondary antibody (anti-human Fab-HRP) followed by HRP substrate AmplexRed. The purified Fabs preferentially bind to human aPC and, with the exception of Fab R41C17, show little to no binding to human PC.
Antigens were coated directly on ELISA plates. Coating antigens included human PC (plasma-derived), human aPC (recombinant), dog aPC (plasma-derived), and mouse aPC (recombinant) at 100 ng/well in PBS/Ca buffer. After blocking the plate with 5% milk/PBS and washing the plate with PBS-Tween20, soluble Fabs (1 ug/ml, 20 nM) were added to the plate and incubated for 1 h at RT with shaking. Fab binding was detected with anti-human Fab (lambda) antibody-HRP and Amplex red as substrate. […] In contrast, R41C17 binds to both human APC and human PC. Also shown in FIG. 3 is cross-species reactivity of Fabs by ELISA.

dog Protein C (zymogen) [15] = target: T2, dog Protein C (zymogen); experiment: direct ELISA, dPC coated at 10 ug/ml, Fab at 20 nM, anti-human Fab-HRP, AmplexRed (RFU)
Protocol: (§1) To determine the binding selectivity of these fabs, their binding activities to the proenzyme human PC, to thrombin (FIIa), and to the activated Factor II (FIIa, thrombin), Factor VII (FVIIa), Factor IX (FIXa), and Factor X (FXa) were also assessed by ELISA. Briefly, an ELISA plate was coated with human aPC at 1 ug/ml, mouse PC at 10 ug/ml, dog PC at 10 ug/ml, other coagulation factors (FIIa, FVIIa, FIXa, FXa) at 5-10 ug/ml. Anti-aPC Fabs were added to the wells at 20 nM (1 ug/ml). Bound Fabs were detected by the secondary antibody (anti-human Fab-HRP) followed by HRP substrate AmplexRed.

[16] = target: T3, mouse Protein C (zymogen); experiment: direct ELISA, mPC coated at 10 ug/ml, Fab at 20 nM, anti-human Fab-HRP, AmplexRed (RFU)
Protocol: as §1

[17] = target: T4, human activated Protein C; experiment: direct ELISA, antigen coated, Fab
dog activated Protein C [18] = target: T1, dog activated Protein C; experiment: direct ELISA, antigen coated, Fab
[19] = target: T4, human activated Protein C; experiment: cell-based or functional assay; remark: listed apart in the source
[20] = target: T4, human activated Protein C; experiment: cell-based or functional assay; remark: listed apart in the source

Binder	EC50 [1]	EC50 (dog activated Protein C [2])	Anti-aPC IC50 (nM), Amidolytic activity [3]	Anti-aPC IC50 (nM), Amidolytic activity (dog activated Protein C [4])	EC50 [5]	binding result (dog Protein C (zymogen) [6])	EC50 (dog activated Protein C [7])	EC50 [8]	Anti-aPC IC50 (nM), Amidolytic activity [9]	EC50 [10]	further results
B1	7 nM	10.9 nM	25 nM	49 nM	7 nM	no binding	10.9 nM				
B2		3.4 nM		692 nM		no binding	3.4 nM	1.25 nM	131 nM	1.2 nM	binding result [11]: no binding (tested: 20 nM)
B3											Kd [12]: 2 nM; Kd (dog activated Protein C [13]): 5.2 nM; binding result [14]: no binding (tested: 20 nM); binding result (dog Protein C (zymogen) [15]): no binding (tested: 20 nM); binding result [16]: no binding (tested: 20 nM); EC50 [17]: 4.3 nM; EC50 (dog activated Protein C [18]): 8.2 nM
B4	2 nM	2.3 nM	29 nM	147 nM	2 nM	no binding	2.3 nM	2.66 nM	64 nM	2.7 nM	aPTT, inhibition of aPC activity at 1 ug/ml IgG (1:1 molar ratio) [19]: ~50%; binding result [11]: no binding (tested: 20 nM)
B5											Kd [12]: 1.3 nM; Kd (dog activated Protein C [13]): 1.3 nM; binding result [14]: no binding (tested: 20 nM); binding result (dog Protein C (zymogen) [15]): no binding (tested: 20 nM); binding result [16]: no binding (tested: 20 nM); EC50 [17]: 6.3 nM; EC50 (dog activated Protein C [18]): 3.9 nM
B6											IC50 (read off the curve), amidolytic activity of human aPC [b] [20]: ~10 nM
B7	0.6 nM		24 nM		0.6 nM			0.49 nM	27 nM	0.5 nM	
